This data set deals with the molecule itself. Nature of the data set: crystal structure.

B1: Marasmius oreades agglutinin (natural protein, UniProt Q8X123 1-293, looked up)
chain: MSLRRGIYHIENAGVPSAIDLKDGSSSDGTPIVGWQFTPDTINWHQLWLAEPIPNVADTFTLCNLFSGTYMDLYNGSSEAGTAVNGWQGTAFTTNPHQLWTIKKSSDGTSYKIQNYGSKTFVDLVNGDSSDGAKIAGWTGTWDEGNPHQKWYFNRMSVSSAEAQAAIARNPHIHGTYRGYILDGEYLVLPNATFTQIWKDSGLPGSKWREQIYDCDDFAIAMKAAVGKWGADSWKANGFAIFCGVMLGVNKAGDAAHAYNFTLTKDHADIVFFEPQNGGYLNDIGYDSYMAFY
modifications: side chain of Cys215 oxidized in about 50% of the molecules in the crystal
For B1, the “stoichiometry N” value is 2.
